Molecular target: cynomolgus αV (HEK-293 cells transfected with cynomolgus αV alone) (cynomolgus)
Assay: FACS, HEK-293 transfected with cynomolgus αV

Sequence of cynomolgus αV (HEK-293 cells transfected with cynomolgus αV alone) (cynomolgus) (chain, as listed by the source): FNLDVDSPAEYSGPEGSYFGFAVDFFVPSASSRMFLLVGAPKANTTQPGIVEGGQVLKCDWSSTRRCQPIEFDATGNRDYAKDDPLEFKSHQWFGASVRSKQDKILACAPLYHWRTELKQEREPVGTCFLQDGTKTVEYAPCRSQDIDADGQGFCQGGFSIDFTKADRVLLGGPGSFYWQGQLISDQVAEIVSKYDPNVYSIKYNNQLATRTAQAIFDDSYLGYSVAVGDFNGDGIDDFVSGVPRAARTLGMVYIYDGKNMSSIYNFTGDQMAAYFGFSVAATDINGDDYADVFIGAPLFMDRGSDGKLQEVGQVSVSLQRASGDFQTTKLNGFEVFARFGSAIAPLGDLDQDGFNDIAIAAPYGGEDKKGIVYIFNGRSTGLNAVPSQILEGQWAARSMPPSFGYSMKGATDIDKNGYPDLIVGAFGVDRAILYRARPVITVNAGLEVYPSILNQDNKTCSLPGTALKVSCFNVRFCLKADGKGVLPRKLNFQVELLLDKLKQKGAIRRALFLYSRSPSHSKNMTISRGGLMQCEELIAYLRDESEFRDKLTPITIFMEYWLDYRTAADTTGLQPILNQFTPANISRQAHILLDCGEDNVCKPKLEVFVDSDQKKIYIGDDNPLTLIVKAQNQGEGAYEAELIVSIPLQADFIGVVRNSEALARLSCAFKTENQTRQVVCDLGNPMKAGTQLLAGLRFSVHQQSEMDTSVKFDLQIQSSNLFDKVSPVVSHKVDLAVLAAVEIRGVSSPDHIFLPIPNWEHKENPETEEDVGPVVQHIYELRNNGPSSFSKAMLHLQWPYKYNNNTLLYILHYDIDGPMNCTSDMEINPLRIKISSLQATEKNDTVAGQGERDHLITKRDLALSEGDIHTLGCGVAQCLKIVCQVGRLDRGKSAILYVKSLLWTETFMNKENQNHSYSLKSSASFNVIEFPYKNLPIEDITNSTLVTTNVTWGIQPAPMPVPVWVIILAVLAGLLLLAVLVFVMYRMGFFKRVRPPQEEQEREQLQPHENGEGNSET

percent of cells shifted: 5%
B1: sc 133 (antibody, V domains shown)
VH: QVQLVQSGAEVKKPGASVKVSCKASGYTFTGYYMHWVRQAPGQGLEWMGWINPKSGDTNYAQKFQGRVTLTRDTSTSTAYMELSRLRSDDTAVYYCARRLDVWGQGTTVTVSS
VL: QSVLTQPPSVSAAPGQKVTISCSGSSSNIGNNYVSWYQQLPGTAPKLLIYDNNKRPSGIPDRFSGSKSGTSATLGITGLQTGDEADYYCGTWNSSLSAGYVFGTGTKVTV
